In PMC6891888:

Columns and labels:
[1] = target: 16055 NFL TD 2CC+ trimer (HIV-1 (strain 16055)); test: cryo-EM structure
[2] = target: BG505 NFL CC+ trimer (HIV-1 (strain BG505)); test: cryo-EM structure

“16055 NFL TD 2CC+ trimer (domain or fragment)” showed a stoichiometry N [1] of 3.
In the case of “BG505 NFL CC+ trimer (domain or fragment)”, the stoichiometry N [2] was 3.
